Reference: publication PMC11756378, “Centriolar cap proteins CP110 and CPAP control slow elongation of microtubule plus ends” (The Journal of Cell Biology, 2025)

Columns and labels:
[1] = biological target: CEP97^CP110-GFP-SII (CEP97 residues 1–650 fused to CP110 residues 581–991) (human) (UniProt Q8IW35)
[2] = biological target: T1, CPAP-CC1 (residues 89–196) (human, UniProt Q9HC77 89-196); experiment: cross-linking; zero-length cross-linking with 60 mM DMTMM, 6 min, 25°C, then mass spectrometry (xQuest); conditions: both partners purified
T1 construct: Calculated mass of the monomer: 12.5 kDa; source: E. coli BL21(DE3), purified (Ni-NTA, tag cleaved with HRV 3C protease, SEC); not shown: thioredoxin, N-terminal, cleaved; His6, N-terminal, cleaved
T1 sequence (looked up): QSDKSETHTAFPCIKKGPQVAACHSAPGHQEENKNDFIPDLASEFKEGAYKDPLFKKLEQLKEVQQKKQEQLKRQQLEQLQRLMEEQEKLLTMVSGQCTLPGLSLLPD

[3] = biological target: the molecule itself; experiment: SEC-MALS; 20°C, Superdex S75 10/30 or S200 10/30, 20 mM HEPES pH 7.5, 150 mM NaCl, 2 mM DTT; 15 µl at ∼7 mg/ml; proteins alone or mixed equimolar (also 2:1 and 3:1); homodimer for CP110-CC2
[4] = biological target: the molecule itself; experiment: single-molecule fluorescence intensity (TIRF microscopy); single molecules immobilised on coverslips in MRB80; intensity compared with GFP (monomers) and GFP-EB3 (dimers)

## CPAP-NWT-mCh (CPAP 1–607, GCN4 leucine zipper, mCherry, SII) (from UniProt Q9HC77 1-607)
[1]
  MT plus-end growth rate with 20 nM CEP97^CP110-GFP and 50 nM CPAP-NWT-mCh (TIRF reconstitution): 0.05 to 0.1 µm/min
  percentage of time CEP97^CP110 was present at MT plus ends, 20 nM CEP97^CP110-GFP with 50 nM CPAP-NWT-mCh: 69%

## CPAP-NMUT-mCh (CPAP 1–607 L149A/K150A, GCN4 leucine zipper, mCherry, SII) (from UniProt Q9HC77 1-607)
[1]
  percentage of time CEP97^CP110-GFP was bound to MT plus ends, 20 nM CEP97^CP110-GFP with 50 nM CPAP-NMUT-mCh: 26%

B1: CP110-CC2 (residues 635–717) (domain or fragment, human, UniProt O43303-2 635-717, looked up)
chain: GTSSKESEELLKSKMLAFEEMRKRLEEQHAQQLSLLIAEQEREQERLQKEIEEQEKMLKEKKAMTAEASELDINNAVELEWRK
notes: CP110, human, residues 635-717 (coiled-coil domain CC2); Homodimer alone by SEC-MALS; one chain in the heterodimer with CPAP-CC1; Calculated mass of the monomer: 10.0 kDa; also called CP110 fragment 635–717; source: E. coli BL21(DE3), purified (Ni-NTA, tag cleaved with HRV 3C protease, SEC); not shown: thioredoxin, N-terminal, cleaved; His6, N-terminal, cleaved
[2]
  binding result: binds
[3]
  stoichiometry N: 2

B2: CEP97^CP110-GFP-SII (CEP97 residues 1–650 fused to CP110 residues 581–991) (other, human, UniProt Q8IW35 1-650, looked up)
chain: MAVARVDAALPPGEGSVVNWSGQGLQKLGPNLPCEADIHTLILDKNQIIKLENLEKCKRLIQLSVANNRLVRMMGVAKLTLLRVLNLPHNSIGCVEGLKELVHLEWLNLAGNNLKAMEQINSCTALQHLDLSDNNISQIGDLSKLVSLKTLLLHGNIITSLRMAPAYLPRSLAILSLAENEIRDLNEISFLASLTELEQLSIMNNPCVMATPSIPGFDYRPYIVSWCLNLRVLDGYVISQKESLKAEWLYSQGKGRAYRPGQHIQLVQYLATVCPLTSTLGLQTAEDAKLEKILSKQRFHQRQLMNQSQNEELSPLVPVETRASLIPEHSSPVQDCQISQESEPVIQVNSWVGINSNDDQLFAVKNNFPASVHTTRYSRNDLHLEDIQTDEDKLNCSLLSSESTFMPVASGLSPLSPTVELRLQGINLGLEDDGVADESVKGLESQVLDKEEEQPLWAANENSVQMMRSEINTEVNEKAGLLPCPEPTIISAILKDDNHSLTFFPESTEQKQSDIKKPENTQPENKETISQATSEKLPMILTQRSVALGQDKVALQKLNDAATKLQACWRGFYARNYNPQAKDVRYEIRLRRMQEHIVCLTDEIRRLRKERDEERIKKFVQEEAFRFLWNQVRSLQVWQQTVDQRLSSWHFEKVKRRLDLDIDGLQKENCPYVITSGITEQERQHLPEKRYPKGSGFVNKNKMLGTSSKESEELLKSKMLAFEEMRKRLEEQHAQQLSLLIAEQEREQERLQKEIEEQEKMLKEKKAMTAEASELDINNAVELEWRKISDSSLLETMLSQADSLHTSNSNSSGFTNSAMQYSFVSANEAPFYLWGSSTSGLTKLSVTRPFGRAKTRWSQVFSLEIQAKFNKITAVAKGFLTRRLMQTDKLKQLRQTVKDTMEFIRSFQSEAPLKRGIVSAQDASLQERVLAQLRAALYGIHDIFFVMDAAERMSILHHDREVRKEKMLRQMDKMKSPRVALSAATQKSLDRKKYMKAAEMGMPNKKFLVKQNPSETRVLQPNQGQNAPVHRLLSRQGSICRKNPKKAAKCCDNLRRQHSLG
notes: CEP97, human, residues 1-650; Dimer by single-molecule fluorescence intensity; A linker between the two parts is not described; also called CP110-CEP97 fusion; CEP97^CP110 chimera; source: HEK293T, transfected; purified (StrepTactin) for the in vitro assays; in lysate for the co-immunoprecipitation; not shown: GFP, C-terminal, kept; twin-Strep-tag (SII), C-terminal, kept
[4]
  stoichiometry N: 2
